Key:
[1] = target: c-Myc bHLH-Zip (amino acids 342-439) (human, UniProt P01106); assay: gel retardation with an oligonucleotide holding the CACGTG site
Protocol: (§1) Gel retardation DNA binding assays were performed essentially as described in Papoulas et al., (J. Biol. Chem. 267:10470–10480, 1992). Purified Max and c-Myc bHLH-Zip (which contained residues 342–439 of human c-Myc) were made from recombinant *E. coli* by standard techniques. GST-Mxi1 was made as follows: a fragment that contained the entire coding sequence of Mxi1 was amplified using polymerase chain reaction, subcloned into pGEX-2T (Pharmacia), and transformed into DH5α cells. The fusion protein was induced and isolated as described (Smith and Corcoran, *Current Protocols in Molecular Biology*, Ausubel et al., eds., Greene Publishing and Wiley-Interscience, New York, 1989). A double-stranded oligonucleotide, 5'-[…]-3' (SEQ ID NO: 9), that contained the CACGTG (SEQ ID NO: 10) consensus site was used. Approximately 0.5 μg of oligonucleotide was end labeled with [γ-^32P] ATP. Binding assays contained the indicated concentrations of purified Max, c-Myc bHLH-Zip, GST-Mxi1, and 0.5 ng of the labeled DNA probe. […]

LexA-Mxi1 (human) = assay: interaction trap (yeast two-hybrid), pJK103 LexAop-lacZ reporter, galactose; the same value 10 stands on glucose, where tagged Mxi1 is not induced, and the filing reads this as no self-interaction
[2] = target: LexA-n-Myc-bHLH-Zip (Escherichia coli (strain K12); Homo sapiens (Human)); assay: interaction trap (yeast two-hybrid), pJK103 LexAop-lacZ reporter, galactose (<2 on glucose); the text says that this bait does not interact
Sequence of LexA-n-Myc-bHLH-Zip (Escherichia coli (strain K12); Homo sapiens (Human)) (P0A7C2 1-202, tags or fused parts left off): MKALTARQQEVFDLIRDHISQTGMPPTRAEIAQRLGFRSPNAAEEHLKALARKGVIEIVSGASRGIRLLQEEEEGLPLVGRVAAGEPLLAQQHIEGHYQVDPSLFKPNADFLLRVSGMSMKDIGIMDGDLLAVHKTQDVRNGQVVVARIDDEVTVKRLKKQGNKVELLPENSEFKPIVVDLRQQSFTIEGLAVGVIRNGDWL

LexA-Max (human) = assay: interaction trap (yeast two-hybrid), pJK103 LexAop-lacZ reporter, galactose (<2 on glucose)
LexA-cMyc-Cterm (human) = assay: as above
LexA-Id (human) = assay: interaction trap (yeast two-hybrid), pJK103 LexAop-lacZ reporter, galactose
Sequence of LexA-Id (human) (P0A7C2 other isoform, or with tags, fused parts or gaps): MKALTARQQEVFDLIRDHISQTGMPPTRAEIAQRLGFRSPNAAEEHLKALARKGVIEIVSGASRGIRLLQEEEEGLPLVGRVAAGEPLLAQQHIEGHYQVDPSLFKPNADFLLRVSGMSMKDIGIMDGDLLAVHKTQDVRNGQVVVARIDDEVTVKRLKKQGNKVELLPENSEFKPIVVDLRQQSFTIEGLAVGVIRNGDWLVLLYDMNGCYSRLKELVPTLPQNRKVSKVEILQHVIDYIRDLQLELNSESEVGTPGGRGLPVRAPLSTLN

LexA-Hairy (Drosophila) = assay: as above
Sequence of LexA-Hairy (Drosophila) (P0A7C2 other isoform, or with tags, fused parts or gaps): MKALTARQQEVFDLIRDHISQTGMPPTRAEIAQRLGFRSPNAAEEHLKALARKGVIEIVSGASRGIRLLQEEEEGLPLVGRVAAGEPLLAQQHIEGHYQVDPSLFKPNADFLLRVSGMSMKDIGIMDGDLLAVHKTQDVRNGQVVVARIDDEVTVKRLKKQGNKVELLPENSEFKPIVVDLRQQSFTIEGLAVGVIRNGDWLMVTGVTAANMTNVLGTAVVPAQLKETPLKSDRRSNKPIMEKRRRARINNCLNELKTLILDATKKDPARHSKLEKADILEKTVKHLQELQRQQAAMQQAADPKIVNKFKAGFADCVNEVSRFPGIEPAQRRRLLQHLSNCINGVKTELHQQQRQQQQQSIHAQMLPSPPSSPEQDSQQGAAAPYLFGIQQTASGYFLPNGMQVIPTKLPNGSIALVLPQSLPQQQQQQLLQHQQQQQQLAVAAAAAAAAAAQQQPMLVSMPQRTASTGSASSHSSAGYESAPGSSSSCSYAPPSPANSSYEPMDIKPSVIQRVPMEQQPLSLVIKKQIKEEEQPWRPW

[3] = target: LexA-Da (Escherichia coli (strain K12); Drosophila melanogaster (Fruit fly)) (UniProt P0A7C2); assay: as above
Sequence of LexA-Da (Escherichia coli (strain K12); Drosophila melanogaster (Fruit fly)) (P0A7C2 1-202, tags or fused parts left off): as the sequence (P0A7C2 1-202, tags or fused parts left off) above

Max (151 residue form) = Max (151 residue form) (Homo sapiens, UniProt P61244-2 P61244-2:1-151); assay: EMSA; complex b, 10 ng Max; 10 mM Tris pH 7.4, 80 mM NaCl, room temperature; conditions: tags: none stated; E. coli; chain copies: 2 (inferred); label: 32P 5' end
Sequence of Max (151 residue form) (P61244 other isoform, or with tags, fused parts or gaps): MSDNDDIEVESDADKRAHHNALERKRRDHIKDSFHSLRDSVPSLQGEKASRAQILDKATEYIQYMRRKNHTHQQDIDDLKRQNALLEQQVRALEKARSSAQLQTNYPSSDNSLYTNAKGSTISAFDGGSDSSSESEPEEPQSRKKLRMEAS
Protocol: as §1

B1: glutathione S-transferase (GST)-Mxi1 1-220 (other)
chain: MPSPRLQHSKPPRRLSRAQKHSSGTSNTSTANRSTHNELEKNRRAHLRLCLERLKVLIPLGPDCTRHTTLGLLNKAKAHIKKLEEAERKSQHQLENLEREQRFLKWRLEQLQGPQEMERIRMDSIGSTISSDRSDSEREEIEVDVESTEFSHGEVDNISTTSISDIDDHSSLPSIGSDEGYSSASVKLSFTSYRTQHDITVQGKIFTGPIQYKQSLKLGS
[1]
  binding result: no binding

B2: tagged Mxi1 (the invariant activation-tagged moiety of pJG4-5 fused to Mxi1 residues 10-220) (protein)
chain: PPKKKRKVAYPYDVPDYAKPPRRLSRAQKHSSGTSNTSTANRSTHNELEKNRRAHLRLCLERLKVLIPLGPDCTRHTTLGLLNKAKAHIKKLEEAERKSQHQLENLEREQRFLKWRLEQLQGPQEMERIRMDSIGSTISSDRSDSEREEIEVDVESTEFSHGEVDNISTTSISDIDDHSSLPSIGSDEGYSSASVKLSFTSYRTQHDITVQGKIFTGPIQYKQSLKLGS
LexA-Mxi1 (human)
  β-galactosidase (galactose): 10
[2]
  β-galactosidase (galactose): 8
LexA-Max (human)
  β-galactosidase (galactose): 120
LexA-cMyc-Cterm (human)
  β-galactosidase (galactose): 10
LexA-Id (human)
  β-galactosidase (galactose): < 2
LexA-Hairy (Drosophila)
  β-galactosidase (galactose): < 2
[3]
  β-galactosidase (galactose): < 2

B3: Myc-Max consensus site oligonucleotide (dsDNA)
DNA 1: GGAAGCAGACCACGTGGTCTGCTTCC
DNA 2: GGAAGCAGACCACGTGGTCTGCTTCC
Max (151 residue form)
  binding result: binds

— patent US6017692, “Methods of detecting a malignant cell in a biological sample comprising measuring Mxi gene expression alterations” (The General Hospital Corporation, dated 1994)
